In patent publication US20140072613A1, “Compositions and Methods for Treating Cutaneous Scarring” (priority 2012, published 2014):

How the values were obtained:
Test in all cases: cell-based or functional assay
[1] = target: Arg(h) (human) (UniProt P42684)
[2] = target: IR(h) (human) (UniProt P06213)
[3] = target: MRCKα(h) (human) (UniProt Q5VT25)
[4] = target: EGFR(T790M,L858R)(h) (human) (UniProt P00533)
[5] = target: Met(M1268T)(h) (human) (UniProt P08581)
[6] = target: PKCθ(h) (human) (UniProt Q04759)
Sequence of PKCθ(h) (human) (Q04759 whole entry): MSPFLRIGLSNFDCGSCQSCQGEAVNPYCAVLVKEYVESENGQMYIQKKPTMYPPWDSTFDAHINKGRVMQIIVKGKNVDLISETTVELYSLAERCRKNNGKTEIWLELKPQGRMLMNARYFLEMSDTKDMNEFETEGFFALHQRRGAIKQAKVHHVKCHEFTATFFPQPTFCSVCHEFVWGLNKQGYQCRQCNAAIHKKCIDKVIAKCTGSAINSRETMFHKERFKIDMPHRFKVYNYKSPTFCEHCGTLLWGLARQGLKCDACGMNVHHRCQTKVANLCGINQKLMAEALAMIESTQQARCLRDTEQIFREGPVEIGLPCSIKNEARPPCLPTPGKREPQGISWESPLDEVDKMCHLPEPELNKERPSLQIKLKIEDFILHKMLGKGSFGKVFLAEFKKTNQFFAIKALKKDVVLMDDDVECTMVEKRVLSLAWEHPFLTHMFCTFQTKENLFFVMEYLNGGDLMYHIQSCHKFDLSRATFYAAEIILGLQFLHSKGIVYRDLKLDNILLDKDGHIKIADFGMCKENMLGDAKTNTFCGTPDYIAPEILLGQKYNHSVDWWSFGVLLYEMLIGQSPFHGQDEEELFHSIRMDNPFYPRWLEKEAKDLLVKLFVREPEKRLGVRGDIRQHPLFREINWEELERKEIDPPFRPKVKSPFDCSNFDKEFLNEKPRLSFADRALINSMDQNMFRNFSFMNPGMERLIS

[7] = target: Hck(h) activated (human) (UniProt P08631)
Sequence of Hck(h) activated (human) (P08631 251-518 limits assumed): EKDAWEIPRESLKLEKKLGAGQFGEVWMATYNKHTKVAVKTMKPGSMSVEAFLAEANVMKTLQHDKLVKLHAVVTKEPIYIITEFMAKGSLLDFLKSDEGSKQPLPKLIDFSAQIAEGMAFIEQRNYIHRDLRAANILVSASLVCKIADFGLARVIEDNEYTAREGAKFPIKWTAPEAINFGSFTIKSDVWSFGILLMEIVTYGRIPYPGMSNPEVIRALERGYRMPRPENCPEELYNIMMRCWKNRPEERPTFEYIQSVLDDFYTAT

[8] = target: T1, NLK(h) (human) (UniProt Q9UBE8)
T1 sequence (looked up): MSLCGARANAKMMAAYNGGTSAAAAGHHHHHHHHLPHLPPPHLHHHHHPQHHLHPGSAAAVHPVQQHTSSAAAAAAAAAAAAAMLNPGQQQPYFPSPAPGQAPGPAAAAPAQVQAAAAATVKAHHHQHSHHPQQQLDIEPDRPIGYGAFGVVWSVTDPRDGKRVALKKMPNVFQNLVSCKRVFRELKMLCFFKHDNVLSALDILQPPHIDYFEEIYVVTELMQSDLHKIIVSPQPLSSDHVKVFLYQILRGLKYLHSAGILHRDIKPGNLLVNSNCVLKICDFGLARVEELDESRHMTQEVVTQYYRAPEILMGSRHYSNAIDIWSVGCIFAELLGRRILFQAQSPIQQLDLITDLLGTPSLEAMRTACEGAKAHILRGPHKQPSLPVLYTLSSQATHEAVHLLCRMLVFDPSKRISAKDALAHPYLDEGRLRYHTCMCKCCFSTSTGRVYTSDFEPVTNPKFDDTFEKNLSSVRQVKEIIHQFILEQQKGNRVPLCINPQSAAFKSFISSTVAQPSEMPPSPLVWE

[9] = target: Fer(h) (human) (UniProt P16591)
[10] = target: NEK6(h) (human) (UniProt Q9HC98)
[11] = target: KDR(h) (human) (UniProt P35968)
[12] = target: CDK2/cyclinE(h) (human) (UniProt P24941)
[13] = target: Plk3(h) (human) (UniProt Q9H4B4)
Sequence of Plk3(h) (human) (Q9H4B4 58-340 limits assumed): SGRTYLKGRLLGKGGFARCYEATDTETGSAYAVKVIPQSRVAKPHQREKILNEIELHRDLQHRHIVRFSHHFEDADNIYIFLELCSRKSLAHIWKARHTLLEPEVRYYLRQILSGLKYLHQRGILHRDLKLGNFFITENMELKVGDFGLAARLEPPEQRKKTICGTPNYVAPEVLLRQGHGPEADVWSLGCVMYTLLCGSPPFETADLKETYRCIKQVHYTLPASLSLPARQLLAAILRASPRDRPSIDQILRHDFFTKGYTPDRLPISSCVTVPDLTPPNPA

[14] = target: Met(h) (human) (UniProt P08581)
[15] = target: CDK7/cyclinH/MAT1(h) (human) (UniProt P50613)
Sequence of CDK7/cyclinH/MAT1(h) (human) (P50613 whole entry, chain 1 of 3): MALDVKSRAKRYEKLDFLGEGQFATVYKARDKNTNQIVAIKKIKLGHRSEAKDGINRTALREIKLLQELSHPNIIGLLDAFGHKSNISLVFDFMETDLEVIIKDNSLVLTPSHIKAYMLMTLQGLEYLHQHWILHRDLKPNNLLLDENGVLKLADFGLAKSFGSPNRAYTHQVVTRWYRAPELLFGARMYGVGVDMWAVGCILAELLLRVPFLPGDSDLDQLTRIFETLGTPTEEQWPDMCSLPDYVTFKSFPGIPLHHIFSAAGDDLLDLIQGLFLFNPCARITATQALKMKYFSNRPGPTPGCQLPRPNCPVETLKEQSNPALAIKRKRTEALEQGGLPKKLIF
Sequence of CDK7/cyclinH/MAT1(h) (human) (P51946 whole entry, chain 2 of 3, further chain): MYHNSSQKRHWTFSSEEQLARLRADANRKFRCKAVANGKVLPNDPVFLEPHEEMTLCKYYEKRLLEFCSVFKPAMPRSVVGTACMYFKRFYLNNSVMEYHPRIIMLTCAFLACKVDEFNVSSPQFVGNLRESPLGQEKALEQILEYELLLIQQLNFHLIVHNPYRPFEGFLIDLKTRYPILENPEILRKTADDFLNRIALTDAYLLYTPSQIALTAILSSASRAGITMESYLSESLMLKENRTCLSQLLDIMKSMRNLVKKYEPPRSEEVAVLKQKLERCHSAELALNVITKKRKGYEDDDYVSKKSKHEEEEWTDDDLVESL
Sequence of CDK7/cyclinH/MAT1(h) (human) (P51948 whole entry, chain 3 of 3, further chain): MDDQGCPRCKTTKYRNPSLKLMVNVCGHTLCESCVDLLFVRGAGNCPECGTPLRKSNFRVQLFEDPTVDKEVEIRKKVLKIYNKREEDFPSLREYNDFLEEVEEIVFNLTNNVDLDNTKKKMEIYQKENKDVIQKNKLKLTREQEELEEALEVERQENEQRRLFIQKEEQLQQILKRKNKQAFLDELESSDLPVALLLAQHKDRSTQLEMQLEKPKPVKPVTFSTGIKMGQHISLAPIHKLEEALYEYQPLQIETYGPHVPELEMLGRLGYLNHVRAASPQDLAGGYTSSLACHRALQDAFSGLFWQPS

[16] = target: Flt4(h) (human) (UniProt P35916)
[17] = target: SAPK2a(T106M)(h) (human) (UniProt Q16539)
Sequence of SAPK2a(T106M)(h) (human) (Q16539 whole entry T106M): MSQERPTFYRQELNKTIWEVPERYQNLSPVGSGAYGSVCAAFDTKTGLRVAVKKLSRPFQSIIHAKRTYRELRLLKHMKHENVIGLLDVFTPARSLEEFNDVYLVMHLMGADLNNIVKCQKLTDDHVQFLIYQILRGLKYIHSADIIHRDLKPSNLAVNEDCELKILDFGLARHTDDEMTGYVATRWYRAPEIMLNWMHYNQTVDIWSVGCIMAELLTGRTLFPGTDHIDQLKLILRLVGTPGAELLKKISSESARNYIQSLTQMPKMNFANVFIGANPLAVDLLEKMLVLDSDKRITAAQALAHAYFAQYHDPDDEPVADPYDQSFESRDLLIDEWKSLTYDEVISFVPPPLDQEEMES

[18] = target: Abl(Q252H)(h) (human) (UniProt P00519)
[19] = target: T2, Ret(V804L)(h) (human) (UniProt P07949)
T2 sequence (looked up): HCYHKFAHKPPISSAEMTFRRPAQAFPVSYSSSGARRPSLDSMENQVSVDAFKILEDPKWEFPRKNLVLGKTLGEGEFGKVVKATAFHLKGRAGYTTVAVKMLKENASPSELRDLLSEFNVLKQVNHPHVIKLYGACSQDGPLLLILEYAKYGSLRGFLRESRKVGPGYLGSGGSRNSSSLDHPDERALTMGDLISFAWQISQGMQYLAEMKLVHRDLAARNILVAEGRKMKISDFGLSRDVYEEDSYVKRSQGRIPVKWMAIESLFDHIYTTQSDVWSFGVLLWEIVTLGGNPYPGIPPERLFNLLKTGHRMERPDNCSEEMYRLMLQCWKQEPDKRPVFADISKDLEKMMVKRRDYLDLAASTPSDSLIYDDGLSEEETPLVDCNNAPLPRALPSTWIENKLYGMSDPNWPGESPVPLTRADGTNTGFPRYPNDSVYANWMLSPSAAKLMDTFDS

[20] = target: FGFR1(h) (human) (UniProt P11362)
Sequence of FGFR1(h) (human) (P11362 456-765 limits assumed): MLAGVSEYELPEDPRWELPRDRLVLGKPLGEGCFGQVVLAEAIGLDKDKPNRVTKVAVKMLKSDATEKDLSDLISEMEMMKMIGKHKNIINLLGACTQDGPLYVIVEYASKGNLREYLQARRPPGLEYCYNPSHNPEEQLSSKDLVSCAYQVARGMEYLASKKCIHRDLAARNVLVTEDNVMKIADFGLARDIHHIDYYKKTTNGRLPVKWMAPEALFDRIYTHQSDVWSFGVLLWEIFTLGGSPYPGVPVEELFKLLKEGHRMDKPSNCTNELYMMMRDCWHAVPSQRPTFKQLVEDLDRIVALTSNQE

[21] = target: CDK9/cyclin T1(h) (human) (UniProt P50750)
[22] = target: T3, EphA8(h) (human) (UniProt P29322)
T3 sequence (looked up): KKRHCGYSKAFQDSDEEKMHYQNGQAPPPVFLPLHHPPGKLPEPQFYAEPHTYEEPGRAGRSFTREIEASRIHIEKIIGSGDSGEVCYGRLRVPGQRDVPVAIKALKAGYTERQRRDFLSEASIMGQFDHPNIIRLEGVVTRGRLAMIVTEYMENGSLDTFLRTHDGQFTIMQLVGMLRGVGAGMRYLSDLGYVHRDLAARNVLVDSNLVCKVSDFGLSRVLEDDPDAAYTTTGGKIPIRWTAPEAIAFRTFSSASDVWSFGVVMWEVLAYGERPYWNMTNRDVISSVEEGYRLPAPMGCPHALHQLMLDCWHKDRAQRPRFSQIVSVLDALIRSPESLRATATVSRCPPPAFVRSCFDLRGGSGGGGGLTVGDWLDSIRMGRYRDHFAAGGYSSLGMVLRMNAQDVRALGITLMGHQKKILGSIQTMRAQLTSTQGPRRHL

[23] = target: T4, SAPK3(h) (human) (UniProt P53778)
T4 sequence (looked up): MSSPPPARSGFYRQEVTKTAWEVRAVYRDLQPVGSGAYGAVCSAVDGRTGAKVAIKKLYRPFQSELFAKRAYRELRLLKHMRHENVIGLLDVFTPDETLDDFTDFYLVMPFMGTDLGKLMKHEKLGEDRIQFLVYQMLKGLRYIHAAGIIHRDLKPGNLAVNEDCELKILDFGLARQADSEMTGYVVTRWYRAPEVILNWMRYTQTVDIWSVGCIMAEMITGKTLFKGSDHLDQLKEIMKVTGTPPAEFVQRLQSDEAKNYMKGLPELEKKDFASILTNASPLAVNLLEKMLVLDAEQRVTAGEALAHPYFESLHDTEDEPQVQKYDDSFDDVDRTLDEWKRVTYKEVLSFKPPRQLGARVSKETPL

[24] = target: CSK(h) (human) (UniProt P41240)
Sequence of CSK(h) (human) (P41240 whole entry): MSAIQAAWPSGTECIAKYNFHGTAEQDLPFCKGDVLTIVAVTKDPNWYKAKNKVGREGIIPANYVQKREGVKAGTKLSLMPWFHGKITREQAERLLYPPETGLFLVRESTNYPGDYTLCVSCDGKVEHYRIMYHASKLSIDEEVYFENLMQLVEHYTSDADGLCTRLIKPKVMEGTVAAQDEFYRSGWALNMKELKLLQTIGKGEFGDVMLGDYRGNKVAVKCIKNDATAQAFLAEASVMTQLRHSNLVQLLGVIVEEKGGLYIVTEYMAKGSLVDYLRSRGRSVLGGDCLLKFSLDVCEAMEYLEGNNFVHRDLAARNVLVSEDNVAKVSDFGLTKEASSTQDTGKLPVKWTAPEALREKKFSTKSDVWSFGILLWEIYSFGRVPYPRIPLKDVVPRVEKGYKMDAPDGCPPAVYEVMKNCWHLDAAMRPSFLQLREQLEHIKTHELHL

[25] = target: ROCK-I(h) (human) (UniProt Q13464)

Sequence of Arg(h) (human) (P42684 38-1182 limits assumed): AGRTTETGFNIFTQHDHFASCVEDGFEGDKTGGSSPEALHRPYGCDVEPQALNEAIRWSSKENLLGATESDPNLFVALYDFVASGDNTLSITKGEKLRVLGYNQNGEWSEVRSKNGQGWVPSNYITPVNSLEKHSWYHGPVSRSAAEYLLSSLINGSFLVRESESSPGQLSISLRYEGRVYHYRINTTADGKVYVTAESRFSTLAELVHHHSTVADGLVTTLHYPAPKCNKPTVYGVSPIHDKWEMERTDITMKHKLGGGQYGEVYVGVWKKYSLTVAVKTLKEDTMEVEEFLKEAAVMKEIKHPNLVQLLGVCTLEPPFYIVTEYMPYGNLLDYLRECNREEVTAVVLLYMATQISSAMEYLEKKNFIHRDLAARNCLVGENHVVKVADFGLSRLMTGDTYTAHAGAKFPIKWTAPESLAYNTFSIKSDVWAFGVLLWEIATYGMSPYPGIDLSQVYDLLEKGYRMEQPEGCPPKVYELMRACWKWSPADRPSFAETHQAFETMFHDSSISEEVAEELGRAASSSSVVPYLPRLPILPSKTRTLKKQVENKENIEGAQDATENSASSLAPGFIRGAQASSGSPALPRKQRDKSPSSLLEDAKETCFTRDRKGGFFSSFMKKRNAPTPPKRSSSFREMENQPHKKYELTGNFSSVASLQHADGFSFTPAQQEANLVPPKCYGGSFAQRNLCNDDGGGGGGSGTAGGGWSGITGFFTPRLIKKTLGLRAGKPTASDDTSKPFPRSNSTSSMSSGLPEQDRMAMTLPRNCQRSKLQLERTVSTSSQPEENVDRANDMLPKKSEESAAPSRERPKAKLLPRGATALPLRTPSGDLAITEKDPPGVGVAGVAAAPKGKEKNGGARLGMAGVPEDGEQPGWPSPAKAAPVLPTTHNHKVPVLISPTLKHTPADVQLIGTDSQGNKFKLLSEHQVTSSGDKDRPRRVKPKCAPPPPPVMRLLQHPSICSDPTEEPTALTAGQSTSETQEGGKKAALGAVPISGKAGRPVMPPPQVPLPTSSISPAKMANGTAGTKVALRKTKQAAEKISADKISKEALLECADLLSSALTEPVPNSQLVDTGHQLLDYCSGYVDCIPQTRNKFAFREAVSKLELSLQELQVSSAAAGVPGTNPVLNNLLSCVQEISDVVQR
Sequence of MRCKα(h) (human) (Q5VT25 1-473 limits assumed): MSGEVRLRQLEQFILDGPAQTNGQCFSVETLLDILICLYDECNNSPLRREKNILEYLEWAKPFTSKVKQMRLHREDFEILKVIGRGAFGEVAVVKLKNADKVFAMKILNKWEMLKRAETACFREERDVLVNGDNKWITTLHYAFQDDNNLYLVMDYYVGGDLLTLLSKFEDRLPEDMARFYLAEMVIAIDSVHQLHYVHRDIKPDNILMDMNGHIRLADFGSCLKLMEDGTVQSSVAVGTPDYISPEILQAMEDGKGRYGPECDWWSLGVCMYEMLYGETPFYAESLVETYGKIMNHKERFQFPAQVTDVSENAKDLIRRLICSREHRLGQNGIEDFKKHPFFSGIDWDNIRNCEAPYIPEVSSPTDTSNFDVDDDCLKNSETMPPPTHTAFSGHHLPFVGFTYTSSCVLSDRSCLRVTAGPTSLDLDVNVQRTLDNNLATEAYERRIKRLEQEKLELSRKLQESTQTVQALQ

MMI-0500 (peptide)
% activity, 100 µM [1]: 22% | % activity, 100 µM [2]: 95% | % activity, 100 µM [3]: 5% | % activity, 100 µM [4]: 53% | % activity, 100 µM [5]: 239% | % activity, 100 µM [6]: 62% | % activity, 100 µM [7]: 67% | % activity, 100 µM [8]: 19% | % activity, 100 µM [9]: 196% | % activity, 100 µM [10]: 49% | % activity, 100 µM [11]: 15% | % activity, 100 µM [12]: 19% | % activity, 100 µM [13]: 122% | % activity, 100 µM [14]: 27% | % activity, 100 µM [15]: 15% | % activity, 100 µM [16]: 73% | % activity, 100 µM [17]: 32% | % activity, 100 µM [18]: 40% | % activity, 100 µM [19]: 20% | % activity, 100 µM [20]: 18% | % activity, 100 µM [21]: 6% | % activity, 100 µM [22]: 337% | % activity, 100 µM [23]: 24% | % activity, 100 µM [24]: 2% | % activity, 100 µM [25]: 17%
